# Results published in US20250382373A1 (BIOCYTOGEN PHARMACEUTICALS BEIJING, published 2025).
# Numbering of substitutions follows the chain as printed.
# B1: M-2G10 (antibody, V domains shown)
# VH: EVQLVESGGGVVQPGRSLRLSCAASGFTFNICGIHWVRQAPGKGLEWVATISHDANDKYYADSVKGRFTISRDNSKNTLYLQMNSLRAEDTAVYYCARDGNRGYDGYFDYWGQGTLVTVSS
# VL: not shown
# B2: M-1E9 (antibody, V domains shown)
# VH: QVQLQQWGAGLLKPSETLSLTCVVFGGSFSGYYWSWIRQPPGKGLEWIGEINHSGSTNYNPSLKSRVTVSVDTSKKQFSLNLRSVTAADTAVYYCARGRGIAAAGTYFDYWGQGNLVTVSS
# VL: not shown
# B3: M-2F11 (antibody, V domains shown)
# VH: EVQLVESGPGLVKPSETLSLTCTVSGGSISSNYWSWIRQPPGKGLEWIGYIYHSGSTNYNPSLKSRVTISVDTSKNQFSLKLSSVTAADTAVYFCARGPVSIFGVVKYIDLWGRGTLVTVSS
# VL: not shown
# B4: E-2B7 (antibody, V domains shown)
# VH: EVQLQQWGPGLVKPSQTLSLTCTVSGGSINSGDYYWSWIRQPPGKGLEWIGYIYYSGSTYYNPSLKSRVTISLDTSKNQLSLKLSSVTAADTAVYYCARNNDFGDYLYFDNWGQGTLVTVSS
# VL: not shown
# B5: E-2B7-M-2F11 (bispecific antibody)
# VH 1: B4 VH
# VH 2: B3 VH
# light: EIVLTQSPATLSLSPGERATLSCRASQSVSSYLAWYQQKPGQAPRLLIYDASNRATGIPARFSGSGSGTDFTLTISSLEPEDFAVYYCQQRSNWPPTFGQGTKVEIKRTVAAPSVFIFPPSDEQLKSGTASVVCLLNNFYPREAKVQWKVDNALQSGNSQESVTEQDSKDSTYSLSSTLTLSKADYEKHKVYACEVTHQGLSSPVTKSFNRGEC
# notes: 1+1 IgG1 bispecific with knobs-into-holes and a common light chain: first VH is the EGFR arm (E-2B7), second VH the MET arm (M-2F11); also called anti-EGFR/MET bispecific antibody E-2B7-M-2F11
# B6: E-6C4-M-2G10 (bispecific antibody)
# VH 1: QVQLQQWGPGLVKPSQTLSLTCTVSGGSINSGDYYWSWIRQPPGKGLESIGYIYYSGSTYYNPSLKSRVTISADTSKNQFSLKLTSVTAADTAVYYCARERVYSSSLDYWGQGTLVTVSS
# VH 2: B1 VH
# light: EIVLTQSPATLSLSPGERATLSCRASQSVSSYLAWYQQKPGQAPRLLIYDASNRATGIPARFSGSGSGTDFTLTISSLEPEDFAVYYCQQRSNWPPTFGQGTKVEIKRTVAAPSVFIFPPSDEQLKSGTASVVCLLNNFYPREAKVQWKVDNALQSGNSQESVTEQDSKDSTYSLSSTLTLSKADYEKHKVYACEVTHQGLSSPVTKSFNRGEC
# notes: also called anti-EGFR/MET bispecific antibody E-6C4-M-2G10
# B7: E-6C4-M-2F11 (bispecific antibody)
# VH 1: B6 VH 1
# VH 2: B3 VH
# light: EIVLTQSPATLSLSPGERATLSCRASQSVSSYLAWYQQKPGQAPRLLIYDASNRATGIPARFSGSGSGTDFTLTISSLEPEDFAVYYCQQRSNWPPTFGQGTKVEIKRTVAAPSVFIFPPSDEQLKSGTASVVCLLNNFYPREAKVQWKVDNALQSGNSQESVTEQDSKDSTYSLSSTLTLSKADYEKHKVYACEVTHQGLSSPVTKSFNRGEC
# notes: also called anti-EGFR/MET bispecific antibody E-6C4-M-2F11
# B8: E-6C4 (antibody, V domains shown)
# VH: B6 VH 1
# VL: not shown
# B9: E-3A8 (antibody, V domains shown)
# VH: EVQLVESGGGLVQPGGSLRLSCAVSGFIFSSYEMNWVRQAPGKGLEWVSYISSSGSTIYYADSVKGRFTISRDNAMNSLNLQMNSLRDEDTAVYYCVRVWYSSGWSGCFAYWGQGSLVTVSS
# VL: not shown
# B10: E-3D8 (antibody, V domains shown)
# VH: B9 VH with V24A, M76K, N80Y, D88A, E89D, V93I, V97A, S116T
# VL: not shown
# B11: E-9A6 (antibody, V domains shown)
# VH: EVQLQQSGPGLVKPSQTLSLTCTVSGGSISSGDYYWNWIRQPPGKGLEWIGYIYYSGSTYYNPSLKSRVTISVDTSKNQFSLKLSSVTAADTAVYYCAREGVYTIMVDYWGQGTLVTVSS
# VL: not shown
# B12: E-9D2 (antibody, V domains shown)
# VH: EVQLQESGPGLVKPSQTLSLTCTVSGGSISSGDYYWSWIRQPPGKGLEWIGYIYYSGSTYYNPSLKSRVTISVDTSKNQFSLRLSSVTAADTAVYYCARDLVYYYALDVWGQGTTVTVSS
# VL: not shown
# B13: E-9H2 (antibody, V domains shown)
# VH: EVQLVESGPGLVKPSQTLSLTCTVSGDSISSGDYYWSWIRQPPGKGLEWIGYIYYSGSTYYNPSLKSRVIISLDTSKNQFSLKLISVTAADTAVYYCARVGVYSTSRDYWGQGTLVTVSS
# VL: not shown
# B14: E-9F3 (antibody, V domains shown)
# VH: QVQLQESGPGLVKPSQTLSLTCTVSGGSINSGDYYWSWIRQPPGKGLEWIGHIYYSGITYYNPSLKSRVTISADTSKNQFSLKLTSVTVADTAVYYCDRAGVYHDMDVWGQGTTVTVSS
# VL: not shown
# B15: M-8D9 (antibody, V domains shown)
# VH: QVQLQESGPGLVKPSETLSLTCTVSGGSISGHYWSWIRQSPGKGLEWIGYITYSGSTNYNPSLKSRVTISVDTSKNQFSLKLSSVTAADTAVYYCGTIAVAGRVYYYGVDVWGRGTTVTVSS
# VL: not shown
# Molecular target: T1, human MET on SNU-5 cells (human, UniProt P08581 25-1390)
# T1 construct: whole, on cells; Endogenous MET of SNU-5 cells
# Assay: flow cytometry on SNU-5 cells
# T1 sequence (P08581 25-1390): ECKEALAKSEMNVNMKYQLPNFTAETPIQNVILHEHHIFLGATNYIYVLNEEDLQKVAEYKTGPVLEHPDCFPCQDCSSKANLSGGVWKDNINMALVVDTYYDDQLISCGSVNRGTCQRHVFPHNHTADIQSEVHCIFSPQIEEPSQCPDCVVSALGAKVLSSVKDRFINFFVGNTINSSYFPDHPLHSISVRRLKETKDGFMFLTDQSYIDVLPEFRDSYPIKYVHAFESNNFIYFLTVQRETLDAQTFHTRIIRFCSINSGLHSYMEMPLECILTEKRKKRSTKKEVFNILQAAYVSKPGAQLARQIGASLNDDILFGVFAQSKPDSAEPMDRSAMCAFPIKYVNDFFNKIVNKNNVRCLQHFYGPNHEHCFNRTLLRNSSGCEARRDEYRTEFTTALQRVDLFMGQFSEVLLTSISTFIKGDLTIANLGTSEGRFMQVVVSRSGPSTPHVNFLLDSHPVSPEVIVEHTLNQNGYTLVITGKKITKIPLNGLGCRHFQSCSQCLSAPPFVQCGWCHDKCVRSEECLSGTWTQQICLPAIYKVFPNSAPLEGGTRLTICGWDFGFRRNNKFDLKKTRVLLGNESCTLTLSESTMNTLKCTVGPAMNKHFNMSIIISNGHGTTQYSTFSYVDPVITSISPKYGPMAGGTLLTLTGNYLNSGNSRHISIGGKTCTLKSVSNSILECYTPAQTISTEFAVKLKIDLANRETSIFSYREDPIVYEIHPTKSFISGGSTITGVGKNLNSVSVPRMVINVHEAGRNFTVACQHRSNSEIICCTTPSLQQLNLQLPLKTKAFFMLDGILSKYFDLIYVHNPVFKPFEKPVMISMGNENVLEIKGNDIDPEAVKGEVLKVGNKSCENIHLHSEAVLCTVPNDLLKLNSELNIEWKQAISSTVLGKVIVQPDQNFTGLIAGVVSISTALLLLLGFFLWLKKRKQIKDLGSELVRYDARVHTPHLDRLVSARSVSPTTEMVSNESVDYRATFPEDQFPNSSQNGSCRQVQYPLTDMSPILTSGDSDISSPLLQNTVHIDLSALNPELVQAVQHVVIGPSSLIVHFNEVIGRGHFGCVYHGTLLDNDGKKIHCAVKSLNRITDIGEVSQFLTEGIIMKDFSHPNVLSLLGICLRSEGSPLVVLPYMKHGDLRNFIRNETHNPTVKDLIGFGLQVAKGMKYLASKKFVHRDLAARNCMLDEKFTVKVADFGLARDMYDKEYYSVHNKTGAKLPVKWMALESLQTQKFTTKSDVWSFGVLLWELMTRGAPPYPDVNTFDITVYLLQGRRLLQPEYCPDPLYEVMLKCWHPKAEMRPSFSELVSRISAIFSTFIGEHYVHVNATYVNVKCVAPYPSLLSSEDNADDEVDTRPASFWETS
row,Binder,Percentage of Positive Cells [%]
1,B1,98.7
2,B2,99.3
3,B3,97.1

# Molecular target: T2, His-tagged human EGFR protein (human, UniProt P00533 25-645)
# T2 construct: Bought protein; also called hEGFR-His; not shown: His tag
# Assay: SPR (Biacore 8K), Protein A chip
Binder,Kd [nM],koff [s⁻¹],kon [M⁻¹ s⁻¹],binding result
B4,4.22,0.000301,71500,
B5,6.82,0.000503,73800,
B1,,,,no binding (tested: antigen up to 400 nM)
B6,53.1,0.0174,328000,
B3,,,,no binding (tested: antigen up to 400 nM)
B7,70.7,0.0215,304000,

# Molecular target: T3, His-tagged monkey EGFR protein (monkey (crab-eating macaque; Macaca …, UniProt A0A2K5WK39 25-645)
# T3 construct: also called fasEGFR-His; not shown: His tag
# Assay: SPR (Biacore 8K), Protein A chip
Binder,Kd [nM],koff [s⁻¹],kon [M⁻¹ s⁻¹],binding result
B4,6.49,0.000296,45600,
B5,11.8,0.000522,44300,
B1,,,,no binding (tested: antigen up to 400 nM)
B6,80.9,0.011,136000,
B3,,,,no binding (tested: antigen up to 400 nM)
B7,115,0.0198,172000,
B8,158,,,

# Molecular target: T4, His-tagged human MET protein (human, UniProt P08581 25-932)
# T4 construct: Bought protein; also called hMET-His; not shown: His tag
# Assay: SPR (Biacore 8K), Protein A chip
# T4 sequence (P08581 25-932 limits assumed): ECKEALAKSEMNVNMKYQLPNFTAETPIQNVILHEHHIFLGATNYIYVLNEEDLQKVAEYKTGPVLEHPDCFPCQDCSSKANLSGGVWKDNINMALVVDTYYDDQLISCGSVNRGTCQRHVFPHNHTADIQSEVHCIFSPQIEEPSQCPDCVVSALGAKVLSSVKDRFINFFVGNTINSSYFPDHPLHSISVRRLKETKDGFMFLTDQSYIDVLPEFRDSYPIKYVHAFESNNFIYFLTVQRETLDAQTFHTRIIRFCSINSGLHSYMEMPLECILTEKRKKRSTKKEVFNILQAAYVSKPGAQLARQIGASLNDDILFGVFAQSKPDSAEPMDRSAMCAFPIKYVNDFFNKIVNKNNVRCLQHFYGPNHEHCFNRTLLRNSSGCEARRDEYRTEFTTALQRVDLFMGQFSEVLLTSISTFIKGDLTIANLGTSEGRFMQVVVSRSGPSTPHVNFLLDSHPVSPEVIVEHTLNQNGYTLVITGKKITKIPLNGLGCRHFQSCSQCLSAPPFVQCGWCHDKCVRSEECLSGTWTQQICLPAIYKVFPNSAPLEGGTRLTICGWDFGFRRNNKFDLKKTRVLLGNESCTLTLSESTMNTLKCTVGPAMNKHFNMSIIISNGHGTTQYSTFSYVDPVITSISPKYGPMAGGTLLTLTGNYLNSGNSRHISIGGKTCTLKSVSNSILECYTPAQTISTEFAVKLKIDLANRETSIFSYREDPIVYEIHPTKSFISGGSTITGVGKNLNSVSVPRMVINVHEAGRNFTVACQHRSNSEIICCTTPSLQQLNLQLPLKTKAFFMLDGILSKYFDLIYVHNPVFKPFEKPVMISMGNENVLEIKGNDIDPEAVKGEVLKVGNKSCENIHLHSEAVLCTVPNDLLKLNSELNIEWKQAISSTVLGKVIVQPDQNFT
Binder,binding result,Kd [nM],koff [s⁻¹],kon [M⁻¹ s⁻¹]
B4,no binding (tested: antigen up to 400 nM),,,
B5,,28.1,0.00109,38700
B1,,63.6,0.00362,57000
B6,,41.7,0.00165,39500
B3,,55.6,0.0022,39600
B7,,50.5,0.00187,37000
B8,no binding (tested: antigen up to 400 nM),,,

# Molecular target: T5, human EGFR on CHO-S-hEGFR cells (human, UniProt P00533 25-645)
# Assay: flow cytometry on CHO-S-hEGFR cells
row,Binder,Percentage of Positive Cells [%]
1,B9,31.2
2,B10,28.8
3,B4,26.1
4,B8,26.4

# Molecular target: T5, human EGFR on CHO-S-hEGFR cells
# Assay: flow cytometry on CHO-S-hEGFR cells
# Remark: another data set of the same source
row,Binder,Percentage of Positive Cells [%]
1,B11,56.9
2,B12,38.7
3,B13,44.3
4,B14,53.1

# Molecular target: human MET on hMET-NIH3T3 cells (human, UniProt P08581 25-1390)
# Assay: flow cytometry on hMET-NIH3T3 cells; also: test concentration or dose not given here
row,Binder,Percentage of Positive Cells [%]
1,B15,99.8

# Molecular target: T6, monkey EGFR on CHO-S-fasEGFR cells (monkey (crab-eating macaque; Macaca …, UniProt P55245 25-645)
# Assay: flow cytometry on CHO-S-fasEGFR cells; also: test concentration or dose not given here
row,Binder,Percentage of Positive Cells [%]
1,B9,23.8
2,B10,24.1
3,B4,28.6
4,B8,25.4

# Molecular target: T6, monkey EGFR on CHO-S-fasEGFR cells
# Assay: flow cytometry on CHO-S-fasEGFR cells; also: test concentration or dose not given here
# Remark: another data set of the same source
row,Binder,Percentage of Positive Cells [%]
1,B11,55.4
2,B12,45.9
3,B13,41.5
4,B14,53.7

# Molecular target: T7, monkey MET on fasMET-NIH3T3 cells (monkey (Macaca fascicularis))
# Assay: flow cytometry on fasMET-NIH3T3 cells; also: test concentration or dose not given here
# T7 sequence (chain, as listed by the source limits assumed): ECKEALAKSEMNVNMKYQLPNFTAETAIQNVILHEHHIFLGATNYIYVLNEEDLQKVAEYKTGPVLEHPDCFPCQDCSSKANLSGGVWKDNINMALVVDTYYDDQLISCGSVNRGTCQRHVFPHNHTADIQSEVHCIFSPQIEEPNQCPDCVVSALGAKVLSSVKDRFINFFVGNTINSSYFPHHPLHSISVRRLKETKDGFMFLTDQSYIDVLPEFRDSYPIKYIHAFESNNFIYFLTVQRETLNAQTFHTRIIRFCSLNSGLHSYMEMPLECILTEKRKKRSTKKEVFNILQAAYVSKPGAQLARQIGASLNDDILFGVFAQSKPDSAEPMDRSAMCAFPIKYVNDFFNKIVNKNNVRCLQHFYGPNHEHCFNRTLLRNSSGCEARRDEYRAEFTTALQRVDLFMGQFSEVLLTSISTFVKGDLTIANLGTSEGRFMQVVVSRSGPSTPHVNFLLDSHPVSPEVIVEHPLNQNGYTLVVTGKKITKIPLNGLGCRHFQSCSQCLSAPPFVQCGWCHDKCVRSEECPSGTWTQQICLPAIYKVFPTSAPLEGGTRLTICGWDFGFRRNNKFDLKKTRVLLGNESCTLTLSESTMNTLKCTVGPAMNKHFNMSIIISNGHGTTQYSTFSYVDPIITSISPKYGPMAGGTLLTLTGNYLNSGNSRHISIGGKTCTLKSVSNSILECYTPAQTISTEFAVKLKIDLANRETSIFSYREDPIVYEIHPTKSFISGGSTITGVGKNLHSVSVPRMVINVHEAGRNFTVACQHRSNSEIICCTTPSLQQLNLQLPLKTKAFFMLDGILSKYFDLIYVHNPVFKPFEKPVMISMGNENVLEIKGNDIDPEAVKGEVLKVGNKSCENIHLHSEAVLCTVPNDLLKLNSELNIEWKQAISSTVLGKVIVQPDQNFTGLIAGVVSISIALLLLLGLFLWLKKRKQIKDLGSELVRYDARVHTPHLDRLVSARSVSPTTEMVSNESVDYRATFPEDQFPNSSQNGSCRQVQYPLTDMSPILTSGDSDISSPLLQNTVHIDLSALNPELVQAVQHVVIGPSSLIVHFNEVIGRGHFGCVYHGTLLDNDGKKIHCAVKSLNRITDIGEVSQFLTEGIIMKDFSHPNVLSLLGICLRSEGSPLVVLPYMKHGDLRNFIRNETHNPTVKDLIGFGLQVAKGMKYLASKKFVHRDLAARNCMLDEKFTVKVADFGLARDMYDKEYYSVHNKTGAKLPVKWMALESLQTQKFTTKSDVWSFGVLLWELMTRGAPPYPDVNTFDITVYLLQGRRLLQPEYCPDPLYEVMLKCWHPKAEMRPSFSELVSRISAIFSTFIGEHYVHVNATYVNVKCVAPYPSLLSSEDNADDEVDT
row,Binder,Percentage of Positive Cells [%]
1,B1,21
2,B2,48.8
3,B3,71.1

# Molecular target: T7, monkey MET on fasMET-NIH3T3 cells
# Assay: flow cytometry on fasMET-NIH3T3 cells; also: test concentration or dose not given here
# Remark: another data set of the same source
row,Binder,Percentage of Positive Cells [%]
1,B15,65.3

# Molecular target: T2, His-tagged human EGFR protein
# Assay: SPR (Biacore 8K), antibody on Protein A chip
Binder,Kd [nM],koff [s⁻¹],kon [M⁻¹ s⁻¹]
B9,23.2,0.00101,43500
B10,39,0.00132,33900
B4,4.69,0.000286,61000

# Molecular target: T3, His-tagged monkey EGFR protein
# Assay: SPR (Biacore 8K), antibody on Protein A chip
Binder,Kd [nM],koff [s⁻¹],kon [M⁻¹ s⁻¹]
B9,21.3,0.00104,48700
B10,34,0.00132,38700
B4,5.32,0.000342,64300
B8,90.3,,

# Molecular target: T2, His-tagged human EGFR protein
# Assay: SPR (Biacore 8K), antibody on Protein A chip
# Remark: another data set of the same source
Binder,Kd [nM],koff [s⁻¹],kon [M⁻¹ s⁻¹]
B11,9.44,0.00176,186000
B12,60.3,0.0152,252000
B13,98.3,0.0151,154000
B14,27.2,0.00177,64900

# Molecular target: T3, His-tagged monkey EGFR protein
# Assay: SPR (Biacore 8K), antibody on Protein A chip
# Remark: another data set of the same source
Binder,Kd [nM],koff [s⁻¹],kon [M⁻¹ s⁻¹]
B11,12.6,0.00173,138000
B12,99.8,0.0203,203000
B13,152,0.0177,117000
B14,39.9,0.0019,47600

# Molecular target: T4, His-tagged human MET protein
# Assay: SPR (Biacore 8K), antibody on Protein A chip
Binder,Kd [nM],koff [s⁻¹],kon [M⁻¹ s⁻¹]
B1,31.9,0.00605,189000
B2,30.1,0.000698,23200
B3,54.2,0.00313,57700

# Molecular target: T4, His-tagged human MET protein
# Assay: SPR (Biacore 8K), antibody on Protein A chip
# Remark: another data set of the same source
Binder,Kd [nM],koff [s⁻¹],kon [M⁻¹ s⁻¹]
B15,18.6,0.000505,27100
